In US7431923:

Target: T1, GST-EC2 (GST fusion of extracellular loop 2 of human CD63, amino acids 108-202) (human, UniProt P08962 108-202)
T1 construct: range 108-202; Expressed in E. coli BL-21; on blots as total bacterial lysate, in BIAcore captured by immobilised anti-GST antibody; Vector-encoded residues between GST and the loop are not described; also called EC2 fusion polypeptide; not shown: glutathione S-transferase as encoded by the bacterial expression vector PGEX-4T-2 (Amersham Biosciences)
T1 sequence (looked up): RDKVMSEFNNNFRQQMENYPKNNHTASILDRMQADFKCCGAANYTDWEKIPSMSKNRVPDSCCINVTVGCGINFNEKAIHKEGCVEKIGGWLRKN
Assay: BIAcore, steady state; GST-EC2 captured on immobilised anti-GST antibody, antibody injected at 12.5 to 200 nM; KD as reciprocal of KA

Kd: 135 nM
B1: 7BD-33-11A monoclonal antibody (hybridoma ATCC PTA-4890) (antibody, V domains shown)
VH: EVQLQQSGPGLVKPGASVKMSCKASGYTFTSYVMHWVKQMPGQGLEWIGYITPYNDGTKYNEKFKGKATLTSDKSSSTAYMDLSSLTSEDSAVYYCVYGSRYDWYFDVWGAGTTVTVSS
VL: NIMMTQSPSSLAVSAGEKVTMSCKSSQSVLYSSNQKNYLAWYQQKPGQSPKLLIYWASTRESGVPDRFTGSGSGTDFTLTISSVQAEDLAVYYCHQYFSSYTFGGGTKLEIK
